The supplement of paper PMC7125110
± gives the standard error. For some of these results: This sample holds only a part of the variants without activity.

B1: glmS ribozyme (parent)
chain: AUAAAAGCGCCAGAACUACAGAAAUGUAGUUGACGAGGAGGAGGUUUAUCGAAUUUUCGGCGGAUGCCUCCAAA

What was measured:
Conditions in all cases: with glucosamine-6-phosphate
glucosamine-6-phosphate [1] = variants of: B1; assay: kcat; higher = faster cleavage; RNA array
Procedure, shortened: (§1)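 E. coli RNA polymerase transcribed barcoded ribozyme variants in situ on sequenced MiSeq chips, which were tracked via a hybridised Cy3 probe at 37 °C. Tiles were imaged over ~14 h after glucosamine-6-phosphate (40 μM to 10 mM) in HEPES/KCl/Mg(OAc)2 buffer was flowed in. Normalised per-tile medians were fit to one- or two-exponential decays for kobs, and kcat and KM came from weighted Michaelis–Menten fits.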

glucosamine-6-phosphate [2] = variants of: B1; assay: KM; higher = weaker cofactor use; RNA array
Procedure, shortened: as §1

glucosamine-6-phosphate [3] = variants of: B1; assay: self-cleavage kobs at 40 uM GlcN6P; higher = faster cleavage; RNA array
Procedure, shortened: as §1

glucosamine-6-phosphate [4] = variants of: B1; assay: self-cleavage kobs at 160 uM GlcN6P; higher = faster cleavage; RNA array
Procedure, shortened: as §1

glucosamine-6-phosphate [5] = variants of: B1; assay: self-cleavage kobs at 640 uM GlcN6P; higher = faster cleavage; RNA array
Procedure, shortened: as §1

glucosamine-6-phosphate [6] = variants of: B1; assay: self-cleavage kobs at 2500 uM GlcN6P; higher = faster cleavage; RNA array
Procedure, shortened: as §1

glucosamine-6-phosphate [7] = variants of: B1; assay: self-cleavage kobs at 10000 uM GlcN6P; higher = faster cleavage; RNA array
Procedure, shortened: as §1

Variant	kcat (glucosamine-6-phosphate [1]) [s⁻¹]	KM (glucosamine-6-phosphate [2]) [µM]	self-cleavage kobs at 40 uM GlcN6P (glucosamine-6-phosphate [3]) [s⁻¹]	self-cleavage kobs at 160 uM GlcN6P (glucosamine-6-phosphate [4]) [s⁻¹]	self-cleavage kobs at 640 uM GlcN6P (glucosamine-6-phosphate [5]) [s⁻¹]	self-cleavage kobs at 2500 uM GlcN6P (glucosamine-6-phosphate [6]) [s⁻¹]	self-cleavage kobs at 10000 uM GlcN6P (glucosamine-6-phosphate [7]) [s⁻¹]
A39G A64G	0.127 ± 0.027	5960 ± 1400	0.000853 ± 0.00016	0.00322 ± 0.00052	0.0131 ± 0.0018	0.0328 ± 0.0078	0.0876 ± 0.026
G37U U65G	< 1e-05	1260 ± 500	< 1e-05	< 1e-05	< 1e-05	–	–
G38U	< 1e-05	–	–	–	–	–	–
A39G	0.0923 ± 0.019	2540 ± 580	0.00154 ± 3.7e-05	0.00433 ± 0.00024	0.0174 ± 0.0013	0.0472 ± 0.0047	0.075 ± 0.0037
A39U	0.0425 ± 0.0086	3040 ± 720	0.000604 ± 1e-05	0.00176 ± 7.4e-05	0.00683 ± 0.00016	0.019 ± 0.00075	0.0347 ± 0.0012
A39C	0.00949 ± 0.0017	2180 ± 510	0.000188 ± 3.3e-06	0.000491 ± 1.8e-05	0.00208 ± 7.2e-05	0.00591 ± 0.00018	0.00752 ± 0.00019
A39U A64U	4.75e-05 ± 1.7e-06	537 ± 120	–	–	2.64e-05 ± 9.3e-06	4e-05 ± 7e-06	4.46e-05 ± 5.4e-06
A39U A64C	0.000269 ± 4.6e-05	3410 ± 1100	–	–	5.07e-05 ± 7e-06	9.58e-05 ± 1.3e-05	0.00021 ± 1.9e-05
A39C A48C	7.62e-05 ± 2.8e-06	3440 ± 350	–	–	–	3.1e-05 ± 1.1e-05	5.69e-05 ± 9.4e-06
G37C C67A	< 1e-05	2800 ± 950	–	< 1e-05	–	–	–
G40A U57A	3.08e-05 ± 6.4e-06	–	< 1e-05	< 1e-05	–	3.99e-05 ± 1.3e-05	2.63e-05 ± 9.5e-06
G37A U54A U65G	0.000309 ± 7.3e-05	5170 ± 1900	–	–	4.03e-05 ± 1.2e-05	9.16e-05 ± 2e-05	0.000215 ± 5e-05
A39C U57C	1.89e-05 ± 2.4e-06	–	–	–	–	1.97e-05 ± 9.4e-06	–
A39U G66C	0.0109 ± 0.0036	6420 ± 2800	5.39e-05 ± 1.3e-05	0.00046 ± 0.00012	0.00112 ± 0.00026	0.00343 ± 0.00096	0.0065 ± 0.001
A39U G51A	< 1e-05	–	< 1e-05	< 1e-05	–	–	< 1e-05
A39G G66A	0.0379 ± 0.019	–	0.000706 ± 0.00011	0.00437 ± 0.0011	0.00601 ± 0.001	0.0223 ± 0.0067	0.0342 ± 0.0078

Variant	kcat (glucosamine-6-phosphate [1]) [s⁻¹]	KM (glucosamine-6-phosphate [2]) [µM]	self-cleavage kobs at 40 uM GlcN6P (glucosamine-6-phosphate [3]) [s⁻¹]	self-cleavage kobs at 160 uM GlcN6P (glucosamine-6-phosphate [4]) [s⁻¹]	self-cleavage kobs at 640 uM GlcN6P (glucosamine-6-phosphate [5]) [s⁻¹]	self-cleavage kobs at 2500 uM GlcN6P (glucosamine-6-phosphate [6]) [s⁻¹]	self-cleavage kobs at 10000 uM GlcN6P (glucosamine-6-phosphate [7]) [s⁻¹]
G38C C58G C70U	< 1e-05	–	–	–	–	–	–
G37U C68U	< 1e-05	–	–	–	–	–	–
G37C A53U	2.09e-05 ± 2.3e-06	–	< 1e-05	–	–	2.18e-05 ± 9.8e-06	1.92e-05 ± 8.5e-06
G40A U55G	0.00116 ± 0.00032	369 ± 170	0.000131 ± 1.8e-05	0.000246 ± 5.5e-05	0.000944 ± 0.00014	–	0.00106 ± 0.00018
G37U C58U	< 1e-05	–	–	–	–	–	< 1e-05
A39U U49G	0.00055 ± 0.00012	–	–	–	0.000168 ± 5.1e-05	0.000231 ± 6.6e-05	0.000461 ± 7.3e-05
A39G G40C	9.61e-05 ± 1.3e-05	–	–	–	4.2e-05 ± 1.4e-05	0.000101 ± 1.8e-05	8.35e-05 ± 1.4e-05
G40U A52G	0.000217 ± 3.4e-05	1490 ± 600	–	–	7.61e-05 ± 1.5e-05	0.000112 ± 1.8e-05	0.000206 ± 2.5e-05
G40U A52U	0.000102 ± 6.2e-06	2510 ± 550	–	–	–	4.82e-05 ± 9.8e-06	8.17e-05 ± 6.8e-06
A39U G40A	0.00855 ± 0.0042	–	0.000239 ± 2.5e-05	0.000664 ± 0.0001	0.00165 ± 0.00021	0.00537 ± 0.0012	0.00952 ± 0.0017
G37A G62A	< 1e-05	–	< 1e-05	–	< 1e-05	–	< 1e-05
A39C G40C	0.000145 ± 1.6e-06	1590 ± 47	–	–	4.2e-05 ± 9e-06	8.75e-05 ± 1.8e-05	0.000126 ± 1.5e-05
A39C G40U	0.000135 ± 1.1e-05	1690 ± 480	–	–	5.01e-05 ± 1.7e-05	7.56e-05 ± 9.8e-06	0.000118 ± 1e-05
G37A G66A	0.00157 ± 0.00017	4290 ± 740	1.72e-05 ± 8.5e-06	6.39e-05 ± 2e-05	0.0002 ± 5.4e-05	0.000527 ± 0.0001	0.00114 ± 0.00018
G37A G66U	0.000462 ± 0.00011	3940 ± 1500	–	–	5.56e-05 ± 1.3e-05	0.000217 ± 3.4e-05	0.000301 ± 6.5e-05
G38U U47G	< 1e-05	–	< 1e-05	–	–	–	–
